First the molecules themselves.
B1: TPR t1 (parent)
chain: GACCAAUCUGCCCUCAGAGCUCGAGAACAUCUUCGGAUGCAGAGGAGGCAGGCUUCGGUGGCGCGAUAGCGCCAACGUCCUCAACCUCCAAUGCAUCCCACCACAUGAUGAUGCCUGAAGAGCCUUGGUUUUUUG

In this data set the parent is B1. Put plainly: polymerase ribozyme fitness, log enrichment relative to wild type (log ratio); higher = more active; in vitro selection for triplet polymerase activity. In short, it runs like this: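 Input and output libraries were sequenced on Illumina after a single in vitro selection round, run in triplicate on PCR-built, transcribed mutant libraries of each subunit of a heterodimeric triplet polymerase ribozyme. Selection annealed libraries to a biotinylated primer, the partner subunit and triplets, incubated them frozen at −7 °C, then gel-excised extended constructs for streptavidin-bead capture and RT-PCR. Genotypes with ≥10 input reads and ≥1 read per output were kept. Fitness is the logarithm, taken in base 2, of genotype enrichment divided by wild-type enrichment, using inverse-variance-weighted replicate averages.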
In the case of GCCCAAUCUGCCCUCAGAGCUCGAGAACAUCUUCGGAUGCAGAGGAGGCAGGCUUCGGUGGCGCGAUAGCGCCAACGUCCUCAACCUCCAAUGCAUCCCACCACAUGAUGAUGCCUAAAGAGCCUUGGUUUUUUG, the “polymerase ribozyme fitness (log ratio)” value was -3.
Take GCCCAAUCUGCCCUCAGAGCUCGAGAACAUCUUCGGAUGCAGAGGAGGCAGGCUUCGGUGGCGCGAUACCGCCAACGUCCUCAACCUCCAAUGCAUCCCACCACAUGAUGAUGCCUGAAGUGCCUUGGUUUUUUG: the “polymerase ribozyme fitness (log ratio)” value was -0.282.
As for GGCCAAUCUGGCCUCAGAGCUCGAGAACAUCUUCGGAUGCAGAGGAGGCAGGCUUCGGUGACGCGAUAGCGCCAACGUCCUCAACCUCCAAUGCAUCCCACCACAUGAUGAUGCCUGAAGAGCCUUGGAUUUUUU, the figure is -2.91; as for GGCCAAUCUGACCUCAGAGCUCGAGAACAUCUUCGGAUGCAGAGGAGGCAGGCUUCGGUGGCGCGAUAGCGCCAACGUCCUCAACCUCCAAUGCAUCCCACCACAUGAUGAUGCCUGAAGAGCCUUGGUUUUUUG, -1.77; as for GCCCAAUCUGCCCUCAGAGCUCGAGAACAUCUUCGGAUGCAGAGGAGGCAGGCUUCGGUGGCGCGAUAGCGCCAACGCCCUCAACCUCCAAUGCAUCCCACCACAUGAUGAUGCCUGAAGAGCCUUGGUUUUUUG, -1.64.
On to GGCCAAUCUGCCCUCAGAGCUCGAGAACAUCUUCGGAUGCAGAGGAGGCUGGCUUCGGUGGCGCGAUAGCGCCAACGUCCACAACCUCCAAUGCAUCCCACCACAUGAUGAUGCCUGAAGAGCCUUGGUUUUUUG, for which the “polymerase ribozyme fitness (log ratio)” value is 0.17.
The result for GGCCAAUCUGCCCUCCGAGCUCGAGAACAUCUUCGGAUGCAGAGGAGGCAGGCUUCGGUGGCGCGAUAGCGCCAACGUCCUCAACCUCAAAUGCAUCCCACCACAUGAUGAUGCCUGAACAGCCUUGGUUUUAUC reads -2.39; that for GGCCAAUCUGCCCUCAGAGCUCGAGAACGUCUUCGGAUGCAGAGGAGGCAGGCUUCGGUGGCGCGAUAGCGCCAACGUCCUCAACCUCCAAUGCAUCCCACCACAUGAUGAUGCCUGAAGAGCCUUGGUUUUUUG, -1.34; that for GCCCAAUCUGCCCUCAGAGCUCGAGAACAUCUUCGGAUGCAGAGGAGGCAGGCUUCGGUGGCUCGAUAGCGCCAACGUCCUCAACCUCCAAUGCAUCCCACCACAUGAUGAUGCCUGAAGAGCCUUGGUUUUUUG, -2.33.
As for GGCCAAUCUGCGCUCAAAGCUCGAGAACAUCUUCGGAUGCAGAGGAGGCAGGCCUCGGUGGCGCGAUAGCGCCAACGUCCUCAACCUUCAUUGCAUCCCAUCACUUGAUGAUGGCUGAAGAGCCUUGGUUAUUUG, the figure is -5.89; as for GCCCAAUCUGCCCUCAGAGCUCGAGAACAUCUUCGGAUGCAGAGAAGGCAGGAUUCGGUGGCGCGAUAGCGCCAACGUCCUCAACCUCCAAUGCAUCCCACCACAUGAUGAUGCCUGAAGAGCCUUGGUUUUUUG, -1.45; as for GCCCAAUCUGCCCUCAGAGCUCGAGAACAUCUUCGGAUGCAGAGGAGGCAGGCUUCGGUGGCUCGAUAGCGCCAACGUCCUCAACCUCCAAUGCAUCCCACCACAUGAUGAUGCUUGAAGAGCCUUGGUUUUUUG, -4.82.
Consider GGCCAAUCUGGCCUCAGAGCUCGAGAACAUCUUCGGAGGCAGAGGAGGCAGGCUUCGGUGGCGCGAUAGCGCCAACGUCCUGAACCUCCAAUGCAUCCCACCACAUGAUGAUGCCUGAAGAGCCUUGGUUUUUUG, for which the “polymerase ribozyme fitness (log ratio)” value is -4.28.
As for GCCCAAUCGGCCCUCAGAGCUCGAGAACAUCUUCGGAUGCAGAGGAGGCAGGCUUCGGUGUCGCGAUAGCGCCAACGUCCUCAACCUCCAAUGCAUCCCACCACAUGAUAAUGCCUGAAGAGCCUUGGUUUUUUG, the figure is -2.69; as for GCCCAAUCUUCCCUCAGAGCUCGAGAACAUCUUCGGCUGCAGAGGAGGCAGGCUUCGGUGGCGUGAUAGCGCCAACGUCCUCAACCUCCAAUGCAUCCCACCACAUGAUGACGCCUGAAGAGCCUUGGUUUUUUG, -1.73.
With GGCCAAUCUGCCCUCAGAGCUCGAGAACAUCUUCGGAUGCAGAGGAGGCAGGCUUCGGUGGCGCGAUAGCGCCCACGUCCUCAACCUCCAAUGCAUCCCACCACAUGAUGAUGCCUGAAGAGCCUUGGUUUUUUG, the “polymerase ribozyme fitness (log ratio)” value is -0.276.
GCCCAAUCUGCCCUCAGAGCUCGAGAACAUCUUCGGAUGCAGAGGAGGCAGGCUUCGGUGGCGCGAUAGCGCCAACGUCCUCAACCUCCAAUGCAUCCCACCACAUGAUGAUGCCAGAAGAGCCUUGGUUUUUUG: the “polymerase ribozyme fitness (log ratio)” value was -4.2.
As for GGCUAAUCUGCCCUCAGAGCUCGAGAACAUCUUCGGAUGCAGAGGAGGCAGGCUUCGGUGGCGCGAUAGCGCCAACGUACUCAACCUCCAAUGCAUCCCACCACAUGAUGAUGCAUGAAGAGCCUUGGUUUUUUG, the figure is -5.2; as for GCCCAAUCUGCCCUCAGAGCUCGAGAACAUCUUCGGAUGCAGAGGAGGCAGGCUUCGGUGGCGCGAUAGCGCCAACGUCCUCAACCUCCAAUGCAUCCCACCACAUGAUGAUGCCUGAAGAGCAUUGGUUUUUUG, 0.652; as for GCCCAAUCUGCCCUCAGAGCUCGAGAACAUCUUCGGAUGCAGAGGAGGCAGGCUUCGGUGGCGCGAUAGCGCCAACGUCCUCAACCUCCAAUGCAUCCCACCACAUGAUGAUGCCUUAAGAGCCUUGGAUUUUUG, -4.64.
The result for GGCCAAUGUGCCCUCAGAGCUCGAGAACAUCUUCGGAUGCAGAGGAGGCAGGCUUCUGUGGCGCGAUAGCGCCAACGUCCUCAAACUCCAAUGCAUCCCACCACAUGAUGAUGCCUGAAGAGCCUUGGUUUUUUG reads -1.4; that for GGCCAAUCUGCCCUCAGAGAUCGAGAACAUCUUCGGAUGCAGAGGAGGCAGGCUUCGGUGGCCCGAUAGCGCCAACGUCCUCAACCUCCAAUGCAUCCCACCACAUGAUGAUGACUGAAGAGCCUUGGUUUUUUG, -3.77.
As for GGCCUAUCUGCCCUCAGAGCUCGAGAACAUCUUCGGAUGCAGAGGAGGCAGGCUUCGGUGGCGCGAUAGCUCCAACGUCCUCAACCUCCAAUGCAUCCCACCACAUGAUGUUGCCUGAAAAGCCUUGGUUUUUUG, the figure is -5.48.
GGCCAAUCUGCGCUCAGAGAUCGAGAACAUCUUCGGAUGCAGAGGAGGCAGGCUUCGGUGGCGCGAUAUCGCCAACGCCCUCAACCUCCAAUGCAUCCCACCACAUGAUGAUGCCUGAAGAGCCUUGGUCUUUUG: the “polymerase ribozyme fitness (log ratio)” value was -1.63.
GGCUAAUCUGCCCUCAGAGCUCGAGAACAUCUUCAGAUGCAGAGGAGGCAGGCUUCGGUGGCGCGAUAGCGCCAACAUCCUCAACCUCCAAUGCAUCUCAACACAUGAUGAUGCCUGAAGAGCCUUGGUUUUUUG: the “polymerase ribozyme fitness (log ratio)” value is -6.32.
For the variant GGCCAAUCUGCCCUCAGAGCUCGAGAUCAUCUUCGGAUGCAGAGGAGGCAGGCUUCGGUGGCGCGAUAGCGCGAACGUGCUCAACCUCCAAUGCAUCCCACCAUAUGAUGAUGCCUGAAGAGCCUUGGUUUUUUG, the “polymerase ribozyme fitness (log ratio)” value was -6.8.
The result for GCCCAAUCUGCCCUCAGAGCUCGAGAACAUCUUCGGAUGCAGAGGAGGCAGACUUCGGUGGCGCGAUAGCGCCAACGUACUCAACCUCCAAUGCUUCCCACCACAUGAUGAUGCCUGAAGAGUCUUGGUUUUUUA reads -1.79.
Consider GCCCAAACUGCCCUCAGAGCUCGAGAACAUCUUCGGAUGCAGAGGAGGUAGGCUUCGGUGGCGCGAUAGCGCCAACGUCCUCAACCUCCAAUGCAACCCAACACAUGAUGAUGCCUGAAGAGCCGUGGUUUUUUG, for which the “polymerase ribozyme fitness (log ratio)” value is -3.99.
The result for GCCCAAUCUGCCCUCAGAGCUCGAGAACAUCUUCGGAUGCAGAAGAGGCAGGCUUCGGUGGCGCGAUAGCGCCAACGUCCUCAACCUCCAAUGCAUCCCACCACAUGAUGAUACCUGAAGAGCCUUGGUUUUUUG reads -4.5.
The result for GGCCAAUUUGCCCUCAGAGCUCGAGAACAUCUUCGGAUGCAGAGGAGGCAGGCUUCGGUGGCGCGAUAGCGCCAACGUCCUCGACCUCCAAUGCAUCCCACCACAUGAUGAUGCCUGAAGAGCCUUGGUUUUUUG reads -0.602.
The result for GCCCAAUCUGCCCUCAGAGCUCGAGAACAUCUUCGGAUGCAGAAGAGGCAGGCUUCGGAGGCGCGAUAGCGCCAACGUCCUCAACCUCCAAUGCAACCCACCACAUGAUGAAGCCUGAAGAGCCUUGGAUUUUUG reads -2.9; that for GCCCAAUCUGCCCUCAGAGCUCGAGAACAUCUUCGGAUGCAGAGGAGGCAGGCUUCGGUGGCGCGAUAGCGCCAACGUCCUCAACCUCCAAUGCAUCCCACCACAUGAUGAUGCCUGAAGAGACUUGGUUUUUUG, -0.696.
With GGCCAAUCUGCUCUCAGAGCUCGAGAACAUCUUCGGAUGCAGAGGAGGCAGGCUUCGGUGGCGCGAUAGCGCCAACGUCCUCAACCUCGAAUGCAUCCCACCACAUGAUGAUGCCUGAAGAGCCUUGGUUUUUUG, the “polymerase ribozyme fitness (log ratio)” value is -0.965.
As for GCCCAAUCUGCCCUCAGAGCUCGAGAACAUCUUCGGAUGCAGAGAAGGCAGGCUUCAGUGGCGCGAUAGCGCCAACGUCCUCAACCUCCAAUGCAUCCCACCACAUGAUGAUGUCUGAAGAGCUUUCGUUUUUUG, the figure is -5.9; as for GCCCAAUCUGCCCUCAGAGCUCGAGAACAUCUUCGAAUGCAGAGGAGGCUGGCUUCGGUGGCGCGAUAGCGCCAACAUCCUCAACCUCCAAUGCAUCCCACCACAUGAUGAUGCCUGAAGAGUCUUGGUUUUUUG, -2.76.
Take GCCCAAUCUGCCCUCAGAGCUCGAGAACAUCUUCGGAUGCAGAGGAGGCAGGCUUCGGUGGCGCGAUAGCACCAACGUCCUCAACCUCCAAUGCAUCCCACCACAUGAUGAGGCCUGAAGAGCCUUGGUUUUUUG: the “polymerase ribozyme fitness (log ratio)” value was -2.44.
The result for GCCCAAUCUGCCCUCAGAGCUCGAGAACAUCUUCGGAUGCAGAGGAGGCAGGCUUCGGUGGCGCGAUAGCACCAACGUCCUAAACCUCCAAUGCAUCCCACCACAUGAUGAUGCCUGAAGAGCCUUGGUUUUUUG reads -2.88; that for GCCCAAUCUGCCCUCAGAGCACGAGAACAUCUUCGGAUGCAGAGGAGGCAGGCUUCGGUGGCGCGAUAGCGCCAACGUCCUCAACCUCGAAUGCAUCCCACCACAUGAUGAUGCCUGAAGAGCCUUGGUUUUUUG, -4.49.
For the variant GCCCAAUCUGCCCUCAGAGCUCGAGAACAUCUUCGGAUGCAGAGGAUGCAGGCUUCGGUGGCGCGAUAGCGCCAACGCCCUCAACCUCCAAUGCAUCCCACCACAUGAUGACGCCUGAAGAGCCUUGGUUUUUUG, the “polymerase ribozyme fitness (log ratio)” value is -1.88.
For the variant GCCCAAUCUGCCCUCAGAGCUCGAGAACAUCUUCGGAUGCAGAGGAGGCAGGCUUCCGUGGCGCGAUAGCGACAACGUCCUCAACCUCCAAUGCAUCCCAACACAUGAUGAUGCCUGAAGAGCCUUGGUUUUUUU, the “polymerase ribozyme fitness (log ratio)” value is -3.06.
The result for GCCCAAUCUGCCCUCAGAGCUCGAGAACAUCUUCGGAUGCAGAGGAGGCAGGCUUCGGUGGCGCGAUAGCGCCAACGUCCUCAACCUCCAAUGCAUCCCACCACAUGAUGAUGCCUCAAGAGCCUUGGUUCUCUG reads -4.66; that for GCCCAAUCUGCCCUCAGAGCUCGAGAACAUCUUCGGAUGCAGAGGAGGCAGGCUCCGGUGGCGCGAUAGCGCCAACGUCCUGAACCUCCACUGCAUCCCACCACUUGAUGAUGCCUGAAGAGGCUUGGUUUUUUG, -6.66.

The values above are taken from the RNAGym collection of RNA variant scans (doi:10.1073/pnas.2313332121).
